# Laboratory results as given in publication PMC8131360, “Phospholipid translocation captured in a bifunctional membrane protein MprF” (Nature Communications, 2021).
# Target: the molecule itself
# Assay: cryo-EM structure; full-length RtMprF purified in β-DDM or GDN, reconstituted with POPG and MSP1E3D1 (1:2:100) in lipid nanodiscs; 20 mM Tris-HCl pH 7.5, 300 mM NaCl; single-particle analysis, C2 symmetry imposed
protein,measurement,value
"Multiple Peptide Resistance Factor from Rhizobium tropici (RtMprF) (natural protein, UniProt A0A6P1C618 1-869, looked up, MprF (mprF gene) from Rhizobium tropici, full-length protein of 869 amino acid residues; flippase domain (Subdomain 1 Leu24-Arg325, Subdomain 2 Ser334-Arg530) and synthase domain (Pro539-Gly860); also called RtMprF(DDM); RtMprF(GDN); source: E. coli C41(DE3), pET21b; purified (Ni-NTA in β-DDM or GDN) and reconstituted in POPG/MSP1E3D1 nanodiscs (Ni-NTA, SEC); also unpurified, in the E. coli …) MSSPIDLESADEELEERGGIVGLLNRYRALIVAVLTVAVFCIAAYAIYDLTTEVRYDDVVHALTTTKISSVLLALLFTGLSFASLIFYDQNALEYIGKRLPFPHVALTSFSAYAVGNTAGFGALSAGAIRYRAYTRLGLSPDDITRVIAFVTLAFGLGLASVGAMALLVIADEIGPLISVDGLWLRLIAIAILAALAFVVYAGRNGREVRIGPVAVRLPDSRTWSRQFLVTAFDIAASASVLYVLLPETSIGWPGFFAIYAIAVGLGVLSHVPAGFGVFETIIIAWLGSSVNEDAVLSSLVLYRVIYNVIPLVIAIAAISVAELRRFVDHPVASSMRRIGARLMPQLLSAFALLLGMMLVFSSVTPTPDHNLIVLSDYLPLSLVESAHFLSSLLGLAIIVAARGLSQRLDGAWWVSTFSALFALFFSLLKAIAIVEAGLLAFFVFSLVVSRRLFKRPASLLNQTLTAGWLTAIAVVCIGAIVVLFFVYRDVGYSNELWWQFEFADEAPRGLRAALGISIVSSAIAIFSLLRPATKRPEPVSDDAVARAVEIVRKQGVADANLVRMGDKSIMFSEKGDAFIMYGKQGRSWIALFDPVGPRQALPDLIWRFVETARAAGCRSVFYQISPALLSYCADAGLRAFKLGELAVVNLANFELKGGKWANLRQTASRAVRDGLEFAVIEPQDIPDVLDQLAHVSDTWLADHNAKEKSFSLGAFDPDYVCSQPVGVLKKDGKIVAFANILMTETKEEGSVDLMRFSPDAPKGSMDFLFVQILEYLKGEGFQRFNLGMAPLSGMSRRESAPVWDRVGGTVFEHGERFYNFKGLRAFKSKFHPEWQPRYLAVSGGVSPMIALMDATFLIGGGLKGVVRK",stoichiometry N,2
